Results from patent US20230250176A1 (DRAGONFLY THERAPEUTICS, published 2023).

Tests used:
[1] = target: human EGFR T790M, L858R on NCI-H1975 cells (human, UniProt P00533 25-1210); experiment: cell-based or functional assay
[2] = target: T1, human EGFR (wild type) on cells (human, UniProt P00533 25-1210); experiment: cell-based or functional assay
[3] = target: T1, human EGFR (wild type) on cells; experiment: flow cytometry, Detroit 562 cells
[4] = target: T1, human EGFR (wild type) on cells; experiment: flow cytometry, MDA-MB-453 cells
[5] = target: T1, human EGFR (wild type) on cells; experiment: cell-based or functional assay; remark: listed apart in the source
[6] = target: T1, human EGFR (wild type) on cells; experiment: flow cytometry, HCT116 cells

B1: EGFR-TriNKET (bispecific antibody, human IgG1, kappa)
chain: DIQMTQSPSSLSASVGDRVTITCQASQDISNYLNWYQQKPGKAPKLLIYDASNLETGVPSRFSGSGSGTDFTFTISSLQPEDIATYYCQHFRHLPLAFGCGTKVEIKGGGGSGGGGSGGGGSGGGGSQVQLQESGPGLVKPSETLSLTCTVSGGSVSSGDYYWTWIRQSPGKCLEWIGHIYYSGNTNYNPRLKSRLTISIDTSKTQFSLKLSSVTAADTAIYYCVRDRVTGAFDIWGQGTMVTVSSGSDKTHTCPPCPAPELLGGPSVFLFPPKPKDTLMISRTPEVTCVVVDVSHEDPEVKFNWYVDGVEVHNAKTKPREEQYNSTYRVVSVLTVLHQDWLNGKEYKCKVSNKALPAPIEKTISKAKGQPREPRVYTLPPCRDELTKNQVSLTCLVKGFYPSDIAVEWESNGQPENNYKTTPPVLVSDGSFTLYSKLTVDKSRWQQGNVFSCSVMHEALHNHYTQKSLSLSPG
heavy: EVQLVESGGGLVKPGGSLRLSCAASGFTFSSYSMNWVRQAPGKGLEWVSSISSSSSYIYYADSVKGRFTISRDNAKNSLYLQMNSLRAEDTAVYYCARGAPIGAAAGWFDPWGQGTLVTVSSASTKGPSVFPLAPSSKSTSGGTAALGCLVKDYFPEPVTVSWNSGALTSGVHTFPAVLQSSGLYSLSSVVTVPSSSLGTQTYICNVNHKPSNTKVDKKVEPKSCDKTHTCPPCPAPELLGGPSVFLFPPKPKDTLMISRTPEVTCVVVDVSHEDPEVKFNWYVDGVEVHNAKTKPREEQYNSTYRVVSVLTVLHQDWLNGKEYKCKVSNKALPAPIEKTISKAKGQPREPQVCTLPPSRDELTENQVSLTCLVKGFYPSDIAVEWESNGQPENNYKTTPPVLDSDGSFFLYSWLTVDKSRWQQGNVFSCSVMHEALHNHYTQKSLSLSPG
light: DIQMTQSPSSVSASVGDRVTITCRASQGISSWLAWYQQKPGKAPKLLIYAASSLQSGVPSRFSGSGSGTDFTLTISSLQPEDFATYYCQQGVSFPRTFGGGTKVEIKRTVAAPSVFIFPPSDEQLKSGTASVVCLLNNFYPREAKVQWKVDNALQSGNSQESVTEQDSKDSTYSLSSTLTLSKADYEKHKVYACEVTHQGLSSPVTKSFNRGEC
notes: also called EGFR-TriNKET-3
With B1 the “EC50, ADCP by M0 macrophages, NCI-H1975” value [1] was 2.3 nM, the “EC50, ADCP by M0 macrophages, 786-O” value [2] was 2.2 nM and the EC50 [3] was 1.6 nM. For the same binder, the “Max FOB” value [3] was 490 fold over background, the EC50 [4] was 0.33 nM and the “Max FOB” value [4] was 5 fold over background. The “EC50, NK cell degranulation and cytokine production, human PBMCs with 786-O” value [5] was 0.089 nM, the EC50 [6] was 1.4 nM and the “Max FOB” value [6] was 300 fold over background.
